Laboratory results published in FireProtDB (doi:10.1021/bi000610b).
Where “and” joins values, the source holds several entries; their conditions need not be identical. Equal entries are not always repeated.

Details: Chlamydomonas reinhardtii, Thermal, glycine-HCl 10 mM, reversible: yes, whole UniProt chain shown

B1: Thioredoxin H-type wild type, P80028 (protein)
chain: MGGSVIVIDSKAAWDAQLAKGKEEHKPIVVDFTATWCGPCKMIAPLFETLSNDYAGKVIFLKVDVDAVAAVAEAAGITAMPTFHVYKDGVKADDLVGASQDKLKALVAKHAAA
- Tm (pH 2.13, Fluorescence): 35.4 °C
- unfolding enthalpy (van 't Hoff) (pH 2.13, Fluorescence): 23.4 kcal/mol
- Tm (pH 2.25, CD): 37.7 °C and 34.5 °C
- unfolding enthalpy (van 't Hoff) (pH 2.25, CD): 21.5 kcal/mol and 17.9 kcal/mol
- Tm (pH 2.25, DSC): 40 °C
- Tm (pH 2.25, Fluorescence): 42.7 °C
- unfolding enthalpy (van 't Hoff) (pH 2.25, Fluorescence): 31.8 kcal/mol
- Tm (pH 2.5, CD): 47.3 °C and 46.6 °C
- unfolding enthalpy (van 't Hoff) (pH 2.5, CD): 42.5 kcal/mol and 38.5 kcal/mol
- Tm (pH 2.5, DSC): 51.1 °C
- unfolding enthalpy (calorimetric) (pH 2.5, DSC): 52.6 kcal/mol
- Tm (pH 2.5, Fluorescence): 49.2 °C
- unfolding enthalpy (van 't Hoff) (pH 2.5, Fluorescence): 40.9 kcal/mol
- Tm (pH 2.75, CD): 57.5 °C and 53.4 °C
- unfolding enthalpy (van 't Hoff) (pH 2.75, CD): 59.5 kcal/mol and 54.2 kcal/mol
- Tm (pH 3, CD): 63 °C and 61.4 °C
- unfolding enthalpy (van 't Hoff) (pH 3, CD): 76.5 kcal/mol and 65.2 kcal/mol
- Tm (pH 3, DSC): 66.4 °C
- unfolding enthalpy (calorimetric) (pH 3, DSC): 77.4 kcal/mol
- Tm (pH 3, Fluorescence): 65.3 °C
- unfolding enthalpy (van 't Hoff) (pH 3, Fluorescence): 66.9 kcal/mol
- Tm (pH 3.25, DSC): 73.6 °C
- unfolding enthalpy (calorimetric) (pH 3.25, DSC): 80.8 kcal/mol
